Changes are numbered by the printed parent chain. Numbers in names are those of the source.
What was measured:
[1] = target: T1, cynomolgus monkey FcγRIIa1 extracellular domain, His-tagged (cynomolgus monkey); assay: SPR; KD of SG1 / KD of variant
T1 construct: also called cyno FcγRIIa1; cynoFcgRIIa1
T1 chain: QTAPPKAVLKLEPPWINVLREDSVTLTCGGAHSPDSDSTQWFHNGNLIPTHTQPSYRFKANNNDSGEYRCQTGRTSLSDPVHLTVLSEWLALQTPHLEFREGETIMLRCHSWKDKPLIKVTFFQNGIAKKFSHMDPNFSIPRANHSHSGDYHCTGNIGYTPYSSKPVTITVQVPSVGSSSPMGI

[2] = target: T2, cynomolgus monkey FcγRIIa1 extracellular domain, C-terminal His-tag (cynomolgus monkey); assay: SPR (Biacore), KD of SG1 / KD of variant
T2 construct: also called cyno FcγRIIa1; cynoFcgRIIa1; not shown: His-tag added to C-terminus
T2 chain: T1 chain
Experimental: (§1) The kinetic analysis of interactions between these antibodies and FcγR was carried out using BIACORE® T200 or BIACORE® 4000 (GE Healthcare). HBS-EP+ (GE Healthcare) was used as the running buffer, and the measurement temperature was set to 25° C. A chip produced by immobilizing Protein A. Protein A/G or mouse anti-human IgG kappa light chain (BD Biosciences) onto a Series S Sensor Chip CM4 or CM5 (GE Healthcare) by the amine-coupling method was used. […] After the measurement, the antibody captured on the chip was washed off by allowing reaction with 10 mM glycine-HCl, pH1.5 and 25 mM NaOH so that the chip was regenerated and used repeatedly. The sensorgrams obtained as measurement results were analyzed by the 1:1 Langmuir binding model using the BIACORE® Evaluation Software to calculate the binding rate constant ka (L/mol/s) and dissociation rate constant kd (l/s), and the dissociation constant KD (mol/L) was calculated from these values. […] Regarding such interactions, KD values were calculated using the following 1:1 binding model described in BIACORE® T100 Software Handbook BR1006-48 Edition AE.
(§2) The behavior of interacting molecules according to the 1:1 binding model on BIACORE® can be described by Equation 1: Req=C·R max/(KD+C)+RI, wherein, Req is a plot of steady-state binding levels to analyte concentration. C is concentration, RI is bulk refractive index contribution in the sample, and Rmax is analyte binding capacity of the surface. When this equation is rearranged, KD can be expressed as Equation 2: KD=C·Rmax/(Req−RI)−C. KD can be calculated by substituting the values of Rmax, RI, and C into Equation 1 or Equation 2. From the current measurement conditions, RI=0, C=2 μmol/L can be used.

[3] = target: T3, cynomolgus monkey FcγRIIa2 extracellular domain, C-terminal His-tag (cynomolgus monkey); assay: SPR (Biacore), KD of SG1 / KD of variant
T3 construct: also called cyno FcγRIIa2; cynoFcgRIIa2; not shown: His-tag added to C-terminus
T3 chain: T1 chain with P95T, T121A, I127K, A128S, K130N, D135N, R142Q
Experimental: as §1, §2

[4] = target: T4, cynomolgus monkey FcγRIIb extracellular domain, C-terminal His-tag (cynomolgus monkey); assay: SPR (Biacore), KD of SG1 / KD of variant
T4 construct: also called cyno FcγRIIb; cynoFcγRIIb; not shown: His-tag added to C-terminus
T4 chain: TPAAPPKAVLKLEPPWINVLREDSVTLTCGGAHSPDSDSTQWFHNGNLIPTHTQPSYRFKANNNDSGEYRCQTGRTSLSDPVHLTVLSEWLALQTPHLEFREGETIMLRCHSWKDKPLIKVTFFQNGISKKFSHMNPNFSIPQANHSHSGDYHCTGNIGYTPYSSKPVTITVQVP
Experimental: as §1, §2

[5] = target: T5, human FcγRIIaH extracellular domain, C-terminal His-tag (human, UniProt P12318 34-217); assay: SPR (Biacore), KD of SG1 / KD of variant
T5 construct: also called human FcγRIIa (type H); FcgRIIaH; not shown: His-tag added to C-terminus
T5 sequence: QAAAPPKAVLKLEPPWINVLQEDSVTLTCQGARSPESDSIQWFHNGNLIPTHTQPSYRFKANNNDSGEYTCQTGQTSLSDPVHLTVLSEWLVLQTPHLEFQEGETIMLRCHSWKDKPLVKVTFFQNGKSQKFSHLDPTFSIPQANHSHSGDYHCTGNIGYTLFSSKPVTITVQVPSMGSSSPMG
Experimental: as §1, §2

[6] = target: T6, human FcγRIIaR extracellular domain, C-terminal His-tag (human, UniProt P12318 34-217); assay: SPR (Biacore), KD of SG1 / KD of variant
T6 construct: also called human FcγRIIa (type R); FcgRIIaR; not shown: His-tag added to C-terminus
T6 chain: T5 sequence with H134R
Experimental: as §1, §2

[7] = target: T7, human FcγRIIb extracellular domain, C-terminal His-tag (human, UniProt P31994 43-217); assay: SPR (Biacore), KD of SG1 / KD of variant
T7 construct: also called FcgRIIb (human); not shown: His-tag added to C-terminus
T7 sequence: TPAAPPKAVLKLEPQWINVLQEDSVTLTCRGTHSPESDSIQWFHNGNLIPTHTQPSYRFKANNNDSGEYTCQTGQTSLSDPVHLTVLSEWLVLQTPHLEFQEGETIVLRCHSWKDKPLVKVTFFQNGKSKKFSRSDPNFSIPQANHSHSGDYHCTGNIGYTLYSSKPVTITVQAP
Experimental: as §1, §2

[8] = target: T8, human FcγRIIIaV extracellular domain, C-terminal His-tag (human, UniProt P08637 17-208); assay: SPR (Biacore), KD of SG1 / KD of variant
T8 construct: also called FcgRIIIaV; not shown: His-tag added to C-terminus
Experimental: as §1, §2
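Also: relative to parent M103205H795-SG1 carrying the SG1 human heavy chain constant region.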

B1: MS_M103205H795-SG1/M103202L889-SK1 (antibody, human IgG1, kappa)
heavy: not shown
light: DIVMTQSPATLSLSPGERATLSCTSSQSVYHANWLSWFQQKPGQPPKLLIYWASTLAYGVPSRFSGSGSGTDFTLTISSLQPEDAATYYCAGGYGGGRYAFGQGTKVEIKRTVAAPSVFIFPPSDEQLKSGTASVVCLLNNFYPREAKVQWKVDNALQSGNSQESVTEQDSKDSTYSLSSTLTLSKADYEKHKVYACEVTHQGLSSPVTKSFNRGEC
notes: Parent antibody of the Fc variants; heavy chain constant region SG1, light chain M103202L889-SK1; also called MS1032LO06-SG1
KD fold (SG1 = 1) [1]: 1 fold

B2: M103205H795-MY006/M103202L889-SK1 (antibody, human IgG1, kappa)
heavy: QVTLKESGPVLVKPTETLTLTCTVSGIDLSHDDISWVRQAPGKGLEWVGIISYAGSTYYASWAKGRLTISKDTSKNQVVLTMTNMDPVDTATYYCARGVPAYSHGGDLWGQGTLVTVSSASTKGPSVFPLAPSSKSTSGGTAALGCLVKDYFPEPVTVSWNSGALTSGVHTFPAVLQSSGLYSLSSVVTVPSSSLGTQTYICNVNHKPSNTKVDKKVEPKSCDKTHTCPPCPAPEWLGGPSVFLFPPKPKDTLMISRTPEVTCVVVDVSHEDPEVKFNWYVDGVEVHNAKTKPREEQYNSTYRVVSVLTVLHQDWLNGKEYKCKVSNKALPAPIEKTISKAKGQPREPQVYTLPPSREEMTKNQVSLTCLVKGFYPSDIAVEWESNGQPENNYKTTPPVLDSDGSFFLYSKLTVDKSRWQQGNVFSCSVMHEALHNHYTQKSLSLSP
light: B1 light
notes: Substitution put into M103205H795-SG1
KD fold (SG1 = 1) [1]: 1.6 fold

B3: M103205H795-MY008/M103202L889-SK1 (antibody, human IgG1, kappa)
heavy: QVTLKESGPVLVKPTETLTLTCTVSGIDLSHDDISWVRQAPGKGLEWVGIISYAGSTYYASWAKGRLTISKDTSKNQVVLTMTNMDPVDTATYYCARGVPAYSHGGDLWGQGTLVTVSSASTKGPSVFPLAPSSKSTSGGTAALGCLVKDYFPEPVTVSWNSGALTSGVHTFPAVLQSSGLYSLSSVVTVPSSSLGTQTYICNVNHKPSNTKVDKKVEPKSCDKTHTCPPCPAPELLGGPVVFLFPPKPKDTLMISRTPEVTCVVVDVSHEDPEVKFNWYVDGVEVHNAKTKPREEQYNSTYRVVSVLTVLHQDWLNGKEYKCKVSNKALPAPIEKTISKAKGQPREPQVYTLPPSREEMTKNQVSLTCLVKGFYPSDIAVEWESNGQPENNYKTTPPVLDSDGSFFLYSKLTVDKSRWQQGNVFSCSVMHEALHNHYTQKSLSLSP
light: B1 light
notes: as for B2
KD fold (SG1 = 1) [1]: 0.8 fold

B4: M103205H795-MY010/M103202L889-SK1 (antibody, human IgG1, kappa)
heavy: not shown
light: B1 light
notes: as for B2
KD fold (SG1 = 1) [1]: 0.5 fold

B5: M103205H795-MY013/M103202L889-SK1 (antibody, human IgG1, kappa)
heavy: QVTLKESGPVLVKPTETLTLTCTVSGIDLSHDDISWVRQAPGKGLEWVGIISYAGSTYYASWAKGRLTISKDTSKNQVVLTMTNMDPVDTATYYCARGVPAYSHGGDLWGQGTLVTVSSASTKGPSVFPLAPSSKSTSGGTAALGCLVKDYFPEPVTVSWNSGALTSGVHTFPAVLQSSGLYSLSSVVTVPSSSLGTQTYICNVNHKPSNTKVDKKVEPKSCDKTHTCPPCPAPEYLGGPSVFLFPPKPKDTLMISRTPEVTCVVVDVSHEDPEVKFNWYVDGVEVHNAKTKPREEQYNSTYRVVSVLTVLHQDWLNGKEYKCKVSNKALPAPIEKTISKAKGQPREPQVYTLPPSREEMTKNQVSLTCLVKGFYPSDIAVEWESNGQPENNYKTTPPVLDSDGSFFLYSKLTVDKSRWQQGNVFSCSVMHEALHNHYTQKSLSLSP
light: B1 light
notes: as for B2
KD fold (SG1 = 1) [1]: 0.7 fold

B6: M103205H795-MY014/M103202L889-SK1 (antibody, human IgG1, kappa)
heavy: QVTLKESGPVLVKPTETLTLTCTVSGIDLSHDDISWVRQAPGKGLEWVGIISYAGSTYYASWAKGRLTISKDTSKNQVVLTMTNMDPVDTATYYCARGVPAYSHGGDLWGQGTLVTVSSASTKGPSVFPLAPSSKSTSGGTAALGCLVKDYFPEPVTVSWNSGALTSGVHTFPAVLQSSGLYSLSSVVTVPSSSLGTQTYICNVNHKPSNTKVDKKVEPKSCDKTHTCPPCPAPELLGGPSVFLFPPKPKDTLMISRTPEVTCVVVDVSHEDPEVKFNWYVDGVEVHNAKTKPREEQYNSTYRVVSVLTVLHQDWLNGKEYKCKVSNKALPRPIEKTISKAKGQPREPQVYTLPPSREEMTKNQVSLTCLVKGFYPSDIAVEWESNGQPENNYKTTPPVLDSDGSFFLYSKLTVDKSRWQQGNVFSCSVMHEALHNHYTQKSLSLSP
light: B1 light
notes: as for B2
KD fold (SG1 = 1) [1]: 1.3 fold

B7: M103205H795-MY016/M103202L889-SK1 (antibody, human IgG1, kappa)
heavy: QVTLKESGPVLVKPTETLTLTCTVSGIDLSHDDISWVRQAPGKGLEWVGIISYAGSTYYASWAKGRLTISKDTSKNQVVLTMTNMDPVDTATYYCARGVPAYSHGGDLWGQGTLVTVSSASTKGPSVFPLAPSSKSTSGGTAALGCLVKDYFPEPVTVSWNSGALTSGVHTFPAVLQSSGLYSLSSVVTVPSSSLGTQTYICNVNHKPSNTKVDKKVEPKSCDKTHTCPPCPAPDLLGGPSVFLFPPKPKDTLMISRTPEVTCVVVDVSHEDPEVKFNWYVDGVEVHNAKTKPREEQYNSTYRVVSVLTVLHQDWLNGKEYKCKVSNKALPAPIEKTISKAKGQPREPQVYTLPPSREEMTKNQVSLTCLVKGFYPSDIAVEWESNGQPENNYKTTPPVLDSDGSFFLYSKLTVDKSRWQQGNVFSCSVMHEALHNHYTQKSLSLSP
light: B1 light
notes: as for B2
KD fold (SG1 = 1) [1]: 1.1 fold

B8: M103205H795-MY037/M103202L889-SK1 (antibody, human IgG1, kappa)
heavy: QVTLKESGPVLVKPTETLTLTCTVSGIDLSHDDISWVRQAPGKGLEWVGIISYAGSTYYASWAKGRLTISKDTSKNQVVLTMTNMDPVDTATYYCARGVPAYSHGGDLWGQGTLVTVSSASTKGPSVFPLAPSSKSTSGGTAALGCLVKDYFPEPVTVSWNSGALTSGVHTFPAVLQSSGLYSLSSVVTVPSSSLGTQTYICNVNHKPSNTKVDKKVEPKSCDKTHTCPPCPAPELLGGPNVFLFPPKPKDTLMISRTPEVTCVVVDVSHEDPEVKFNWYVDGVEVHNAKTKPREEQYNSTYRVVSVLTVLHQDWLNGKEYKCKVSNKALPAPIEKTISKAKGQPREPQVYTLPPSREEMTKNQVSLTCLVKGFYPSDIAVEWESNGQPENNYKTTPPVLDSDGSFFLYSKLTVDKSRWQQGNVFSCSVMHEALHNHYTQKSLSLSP
light: B1 light
notes: as for B2
KD fold (SG1 = 1) [1]: 0.8 fold

B9: M103205H795-MY038/M103202L889-SK1 (antibody, human IgG1, kappa)
heavy: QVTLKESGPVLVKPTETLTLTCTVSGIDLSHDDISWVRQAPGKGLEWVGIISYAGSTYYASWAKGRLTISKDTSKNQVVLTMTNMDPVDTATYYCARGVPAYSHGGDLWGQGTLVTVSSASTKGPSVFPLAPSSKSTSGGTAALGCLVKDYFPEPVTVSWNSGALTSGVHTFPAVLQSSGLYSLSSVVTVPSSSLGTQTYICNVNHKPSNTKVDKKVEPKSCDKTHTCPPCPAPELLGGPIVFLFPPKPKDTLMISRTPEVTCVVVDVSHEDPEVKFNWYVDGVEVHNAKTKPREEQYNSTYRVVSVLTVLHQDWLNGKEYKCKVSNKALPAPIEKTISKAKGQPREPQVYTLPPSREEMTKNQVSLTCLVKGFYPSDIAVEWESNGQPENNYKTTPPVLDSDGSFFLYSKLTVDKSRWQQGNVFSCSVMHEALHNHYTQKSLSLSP
light: B1 light
notes: as for B2
KD fold (SG1 = 1) [1]: 0.8 fold

B10: M103205H795-MY041/M103202L889-SK1 (antibody, human IgG1, kappa)
heavy: not shown
light: B1 light
notes: as for B2
KD fold (SG1 = 1) [1]: 0.8 fold

B11: M103205H795-MY043/M103202L889-SK1 (antibody, human IgG1, kappa)
heavy: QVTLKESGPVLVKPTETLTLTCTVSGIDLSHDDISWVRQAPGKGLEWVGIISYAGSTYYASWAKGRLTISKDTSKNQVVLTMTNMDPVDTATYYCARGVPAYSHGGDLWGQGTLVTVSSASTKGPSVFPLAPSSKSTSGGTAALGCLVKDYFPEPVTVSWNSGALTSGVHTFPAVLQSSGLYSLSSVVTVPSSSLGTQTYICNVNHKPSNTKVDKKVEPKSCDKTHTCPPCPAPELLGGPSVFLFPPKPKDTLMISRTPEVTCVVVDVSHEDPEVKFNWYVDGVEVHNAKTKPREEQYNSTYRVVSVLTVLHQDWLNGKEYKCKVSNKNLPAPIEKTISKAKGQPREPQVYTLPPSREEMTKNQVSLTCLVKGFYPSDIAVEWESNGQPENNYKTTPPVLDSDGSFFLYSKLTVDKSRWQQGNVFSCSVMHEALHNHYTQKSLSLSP
light: B1 light
notes: as for B2
KD fold (SG1 = 1) [1]: 0.6 fold

B12: M103205H795-MY044/M103202L889-SK1 (antibody, human IgG1, kappa)
heavy: not shown
light: B1 light
notes: as for B2
KD fold (SG1 = 1) [1]: 1 fold

B13: M103205H795-MY045/M103202L889-SK1 (antibody, human IgG1, kappa)
heavy: not shown
light: B1 light
notes: as for B2
KD fold (SG1 = 1) [1]: 0.6 fold

B14: M103205H795-MY048/M103202L889-SK1 (P271D) (antibody, human IgG1, kappa)
heavy: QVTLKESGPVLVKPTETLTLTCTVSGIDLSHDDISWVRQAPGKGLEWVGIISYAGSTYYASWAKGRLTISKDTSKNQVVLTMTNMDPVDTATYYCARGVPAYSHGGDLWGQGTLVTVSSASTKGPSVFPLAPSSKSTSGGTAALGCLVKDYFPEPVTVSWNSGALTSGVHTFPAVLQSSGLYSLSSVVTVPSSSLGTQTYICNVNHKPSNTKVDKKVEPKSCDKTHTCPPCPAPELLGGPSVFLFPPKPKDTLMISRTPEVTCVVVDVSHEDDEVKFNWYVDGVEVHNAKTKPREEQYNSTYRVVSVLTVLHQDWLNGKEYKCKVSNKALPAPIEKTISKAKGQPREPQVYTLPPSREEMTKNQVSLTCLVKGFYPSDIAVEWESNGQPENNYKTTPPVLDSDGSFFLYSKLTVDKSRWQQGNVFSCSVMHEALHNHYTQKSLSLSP
light: B1 light
notes: Here the P271D molecule is meant; Put into M103205H795-SG1
KD fold (SG1 = 1) [1]: 0.6 fold

B15: M103205H795-MY063/M103202L889-SK1 (antibody, human IgG1, kappa)
heavy: not shown
light: B1 light
notes: as for B2
KD fold (SG1 = 1) [1]: 2.3 fold

B16: M103205H795-MY064/M103202L889-SK1 (antibody, human IgG1, kappa)
heavy: not shown
light: B1 light
notes: as for B2
KD fold (SG1 = 1) [1]: 1.3 fold

B17: M103205H795-MY065/M103202L889-SK1 (antibody, human IgG1, kappa)
heavy: not shown
light: B1 light
notes: as for B2
KD fold (SG1 = 1) [1]: 1.4 fold

B18: M103205H795-MY068/M103202L889-SK1 (antibody, human IgG1, kappa)
heavy: not shown
light: B1 light
notes: as for B2
KD fold (SG1 = 1) [1]: 1.5 fold

B19: M103205H795-MY069/M103202L889-SK1 (antibody, human IgG1, kappa)
heavy: not shown
light: B1 light
notes: as for B2
KD fold (SG1 = 1) [1]: 2 fold

B20: M103205H795-MY070/M103202L889-SK1 (antibody, human IgG1, kappa)
heavy: not shown
light: B1 light
notes: as for B2
KD fold (SG1 = 1) [1]: 1.4 fold

B21: M103205H795-MY071/M103202L889-SK1 (antibody, human IgG1, kappa)
heavy: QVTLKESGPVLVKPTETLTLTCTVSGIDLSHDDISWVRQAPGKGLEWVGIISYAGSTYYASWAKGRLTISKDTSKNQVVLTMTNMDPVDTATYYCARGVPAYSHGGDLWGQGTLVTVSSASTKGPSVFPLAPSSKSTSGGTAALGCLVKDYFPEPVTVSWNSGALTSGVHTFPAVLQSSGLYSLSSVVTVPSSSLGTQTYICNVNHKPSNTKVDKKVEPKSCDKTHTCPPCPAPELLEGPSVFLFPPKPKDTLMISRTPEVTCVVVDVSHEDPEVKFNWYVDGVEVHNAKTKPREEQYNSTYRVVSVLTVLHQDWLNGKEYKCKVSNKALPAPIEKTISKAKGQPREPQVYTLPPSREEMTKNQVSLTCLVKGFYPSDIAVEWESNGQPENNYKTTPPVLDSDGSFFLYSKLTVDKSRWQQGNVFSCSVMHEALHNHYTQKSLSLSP
light: B1 light
notes: as for B2
KD fold (SG1 = 1) [1]: 0.6 fold

B22: M103205H795-MY072/M103202L889-SK1 (antibody, human IgG1, kappa)
heavy: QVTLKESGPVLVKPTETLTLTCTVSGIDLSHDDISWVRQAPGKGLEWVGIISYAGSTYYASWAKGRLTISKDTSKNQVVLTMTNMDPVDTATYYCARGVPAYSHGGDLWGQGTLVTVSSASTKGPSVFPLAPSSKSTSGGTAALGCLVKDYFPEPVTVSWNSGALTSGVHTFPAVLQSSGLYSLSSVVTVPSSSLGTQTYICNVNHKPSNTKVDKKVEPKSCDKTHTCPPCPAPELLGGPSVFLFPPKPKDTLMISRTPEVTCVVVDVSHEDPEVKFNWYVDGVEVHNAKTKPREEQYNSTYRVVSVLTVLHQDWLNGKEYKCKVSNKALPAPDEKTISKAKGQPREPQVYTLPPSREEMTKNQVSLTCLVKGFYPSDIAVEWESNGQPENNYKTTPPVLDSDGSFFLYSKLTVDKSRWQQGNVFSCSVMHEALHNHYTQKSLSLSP
light: B1 light
notes: as for B2
KD fold (SG1 = 1) [1]: 3.2 fold

B23: M103205H795-MY073/M103202L889-SK1 (antibody, human IgG1, kappa)
heavy: not shown
light: B1 light
notes: as for B2
KD fold (SG1 = 1) [1]: 2.7 fold

B24: M103205H795-MY124/M103202L889-SK1 (antibody, human IgG1, kappa)
heavy: not shown
light: B1 light
notes: as for B2
KD fold (SG1 = 1) [1]: 1.7 fold

B25: M103205H795-MY196/M103202L889-SK1 (antibody, human IgG1, kappa)
heavy: not shown
light: B1 light
notes: as for B2
KD fold (SG1 = 1) [1]: 1.3 fold

B26: M103205H795-MY280/M103202L889-SK1 (antibody, human IgG1, kappa)
heavy: QVTLKESGPVLVKPTETLTLTCTVSGIDLSHDDISWVRQAPGKGLEWVGIISYAGSTYYASWAKGRLTISKDTSKNQVVLTMTNMDPVDTATYYCARGVPAYSHGGDLWGQGTLVTVSSASTKGPSVFPLAPSSKSTSGGTAALGCLVKDYFPEPVTVSWNSGALTSGVHTFPAVLQSSGLYSLSSVVTVPSSSLGTQTYICNVNHKPSNTKVDKKVEPKSCDKTHTCPPCPAPELLVGPSVFLFPPKPKDTLMISRTPEVTCVVVDVSDEDPEVKFNWYVDGVEVHNAKTKPREELYNSTYRVVSVLTVLHQDWLNGKEYKCKVSNKALPKPIEKTISKAKGQPREPQVYTLPPSREEMTKNQVSLTCLVKGFYPSDIAVEWESNGQPENNYKTTPPVLDSDGSFFLYSKLTVDKSRWQQGNVFSCSVMHEALHNHYTQKSLSLSP
light: B1 light
KD fold (SG1 = 1) [2]: 3.2 fold | KD fold (SG1 = 1) [3]: 4.3 fold | KD fold (SG1 = 1) [4]: 5.5 fold | KD fold (SG1 = 1) [5]: 8.5 fold | KD fold (SG1 = 1) [6]: 2.4 fold | KD fold (SG1 = 1) [7]: 1.6 fold | KD fold (SG1 = 1) [8]: 0.18 fold
